What all share (assay): peptide SPOT array, c-Myc-tagged receptor at 1 uM or 100 nM, anti-c-Myc-Cy3
Assay [1] addresses Bcl-xL, Q07817.
The target in assay [2] is T1, Bfl-1, Q16548.
T1 chain: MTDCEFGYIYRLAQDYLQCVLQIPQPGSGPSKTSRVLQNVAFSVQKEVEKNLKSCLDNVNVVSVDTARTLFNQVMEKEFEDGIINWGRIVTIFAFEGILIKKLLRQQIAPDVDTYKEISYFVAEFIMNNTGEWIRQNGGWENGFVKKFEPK

In assay [3] the target is T2, Mcl-1, Q07820.
T2 chain: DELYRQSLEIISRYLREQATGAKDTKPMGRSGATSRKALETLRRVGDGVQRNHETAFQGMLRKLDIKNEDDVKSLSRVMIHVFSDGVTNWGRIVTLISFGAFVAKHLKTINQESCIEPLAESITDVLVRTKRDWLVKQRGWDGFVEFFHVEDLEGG

Chain of Bcl-xL, Q07817 (Q07817 1-209): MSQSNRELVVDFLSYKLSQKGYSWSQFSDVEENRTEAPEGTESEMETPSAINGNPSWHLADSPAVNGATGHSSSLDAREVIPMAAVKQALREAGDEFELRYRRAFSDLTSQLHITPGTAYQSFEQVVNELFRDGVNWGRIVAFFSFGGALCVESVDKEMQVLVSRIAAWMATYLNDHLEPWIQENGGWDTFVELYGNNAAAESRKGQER

For SGLPGLSSVDINNFLDSINESEGIPL, the SPOT signal as a fraction of Bim BH3's signal on the same receptor and array was 0.11 in assay [1], 0.04 in assay [2] and 0.04 in assay [3].

As to LDFTFVCPTEIIAFLDRLEEFRSINT [PRDX4], the values for the SPOT signal as a fraction of Bim BH3's signal on the same receptor and array in assay [1], in assay [2] and in assay [3] were 0.05, 0.04 and 0.05, respectively.

As for LLDFFMVSILDSKLGDLLHKLQFVLT [PCNXL2], the figures for the SPOT signal as a fraction of Bim BH3's signal on the same receptor and array in assay [1], in assay [2] and in assay [3] were 0.09, 0.04 and 0.06, respectively.

For GSPDSMFGISDAVLGDLNQDGFPDIA [ITGA7], the SPOT signal as a fraction of Bim BH3's signal on the same receptor and array in assay [1] was found to be 0.07; in assay [2] it was 0.08; in assay [3], 0.03.

GTAVAYRGAHLRGRLRAVYNTFRAAP: the SPOT signal as a fraction of Bim BH3's signal on the same receptor and array in assay [1] turned out to be 2.49; in assay [2], 1.48; in assay [3], 1.44.

Regarding RMIVDCVSSHDKKTGDGAKTFIIFLC [BBS10], the SPOT signal as a fraction of Bim BH3's signal on the same receptor and array in assay [1] was 0.17; in assay [2], 0.09; in assay [3], 0.08.

SSTMGQVGRQDAIIGDDINRRYDSEF [BAK1]: the SPOT signal as a fraction of Bim BH3's signal on the same receptor and array came out at 0.02 in assay [1], 0.01 in assay [2] and 0.01 in assay [3].

Take ELLYGIWSNCLGLISDSFHMFFDSTA: the figures for the SPOT signal as a fraction of Bim BH3's signal on the same receptor and array in assay [1], in assay [2] and in assay [3] were 0.07, 0.06 and 0.06, respectively.

On to KKLKNLEGNELQRHLDEFLLDLGHHE, for which the results for the SPOT signal as a fraction of Bim BH3's signal on the same receptor and array in assay [1], in assay [2] and in assay [3] were 0.08, 0.04 and 0.05, respectively.

On to GGRVKLVHSADIQLGDSLSHKGNEFW, for which the results for the SPOT signal as a fraction of Bim BH3's signal on the same receptor and array in assay [1], in assay [2] and in assay [3] were 0.2, 0.24 and 0.23, respectively.

Regarding THFLDEEVKLDKKMGDHLTNLHRLGG [FTL], the SPOT signal as a fraction of Bim BH3's signal on the same receptor and array in assay [1] came out at 0.07; in assay [2], 0.03; in assay [3] it was 0.05.

TAAAAYRGAHDRGRGRTVYNTFRAAA: the SPOT signal as a fraction of Bim BH3's signal on the same receptor and array in assay [1] was found to be 2.54; in assay [2], 1.4; in assay [3] it was 1.43.

Take MSLFLRVVFSFTMFLDLFEEEYSTVS [USP40]: the values for the SPOT signal as a fraction of Bim BH3's signal on the same receptor and array in assay [1], in assay [2] and in assay [3] were 0.06, 0.04 and 0.06, respectively.

In the case of ELLYGIWSNCDGLISDSFHMFFDSTA, the SPOT signal as a fraction of Bim BH3's signal on the same receptor and array came out at 0.06 in assay [1], 0.05 in assay [2] and 0.05 in assay [3].

As to LNLLMISVAFLRVILDQLEKLCDSLL [SLC38A8], the SPOT signal as a fraction of Bim BH3's signal on the same receptor and array is 0.07 in assay [1], 0.05 in assay [2] and 0.04 in assay [3].

Consider SGLPGLSSVDDNNFGDSINESEGIPL, for which the SPOT signal as a fraction of Bim BH3's signal on the same receptor and array stood at 0.08 in assay [1], 0.04 in assay [2] and 0.03 in assay [3].

Take EAVTDGLKRALRSFLNALGNCILDKD [RAD52]: the SPOT signal as a fraction of Bim BH3's signal on the same receptor and array was 0.08 in assay [1], 0.04 in assay [2] and 0.08 in assay [3].

As for GGRVKLVHSALIQLLDSLSHKGNEFW, the figures for the SPOT signal as a fraction of Bim BH3's signal on the same receptor and array in assay [1], in assay [2] and in assay [3] were 0.28, 0.23 and 0.23, respectively.

For MPYMEAVIHEDQRFGDVIPMSLARRV [CYP2A6], the SPOT signal as a fraction of Bim BH3's signal on the same receptor and array was found to be 0.07 in assay [1], 0.04 in assay [2] and 0.07 in assay [3].

Consider SQGKHGFTMAMNAFLDMTNEEFRQMM [CTSL2], for which the SPOT signal as a fraction of Bim BH3's signal on the same receptor and array in assay [1] was 0.07; in assay [2] it was 0.06; in assay [3], 0.11.

As to MRSQLGKATADAIMGDKLWWADQVSE [LRP1], the results for the SPOT signal as a fraction of Bim BH3's signal on the same receptor and array in assay [1], in assay [2] and in assay [3] were 0.17, 0.12 and 0.16, respectively.

ISSLDLLPYGLRYILKVLKNSIHEKF [IQGAP2]: the results for the SPOT signal as a fraction of Bim BH3's signal on the same receptor and array in assay [1], in assay [2] and in assay [3] were 0.86, 0.6 and 0.66, respectively.

For KKLKNLEGNEDQRHADEFLLDLGHHE, the SPOT signal as a fraction of Bim BH3's signal on the same receptor and array in assay [1] came to 0.07; in assay [2], 0.04; in assay [3] it was 0.04.

Consider FTCKNKFCKPLFWVLDSVNDCGDNSD [ST14], for which the SPOT signal as a fraction of Bim BH3's signal on the same receptor and array in assay [1] is 0.23; in assay [2], 0.12; in assay [3] it was 0.27.

As to PSECETLGSNLGHNLDLLNENNILAK [ZFP90], the SPOT signal as a fraction of Bim BH3's signal on the same receptor and array amounted to 0.1 in assay [1], 0.04 in assay [2] and 0.04 in assay [3].

Consider VLAPVQLGKWLVLFLDEINLPDMDKY [DYNC1H1], for which the values for the SPOT signal as a fraction of Bim BH3's signal on the same receptor and array in assay [1], in assay [2] and in assay [3] were 0.08, 0.07 and 0.08, respectively.

ELDEDDLEAEDDALGDELLADEDSSY [CHMP5]: the SPOT signal as a fraction of Bim BH3's signal on the same receptor and array in assay [1] is 0.06; in assay [2] it was 0.03; in assay [3], 0.03.

As to LWAAQRYGREDRRMSDEFVDSFKKGL [BAD], the SPOT signal as a fraction of Bim BH3's signal on the same receptor and array in assay [1] was determined as 0.53; in assay [2] it was 0.3; in assay [3] it was 0.51.

Source of the values: paper PMC4072508, “Genome-Wide Prediction and Validation of Peptides That Bind Human Prosurvival Bcl-2 Proteins” (PLoS Computational Biology, 2014).
